The record followed here is the array DNA melting data of Ke et al..

The data set in a line: melting temperature; melt of duplexes. The note with it: sodium 0.0675 M; strand 1 µM.
One may read the Tm as the temperature at which the thermal transition is half complete. In the case of “CGACGTGCTGTATGTGCTG+CAGCACATAGGGCACGTCG ((((((((..(((((((((+)))))))))..))))))))”, the Tm came out at 52.2 °C.

As for “CGACGTGCTTAATGTGCTG+CAGCACATGTAGCACGTCG (((((((((..((((((((+))))))))..)))))))))”, the midpoint of thermal melting (Tm) amounted to 53.4 °C.

Consider “CGACGTGCACTATGTGCTG+CAGCACATGCTGCACGTCG (((((((((..((((((((+))))))))..)))))))))”, for which the Tm was 45.5 °C.

Consider “CGACGTGCATTATGTGCTG+CAGCACATTCGGCACGTCG ((((((((...((((((((+))))))))...))))))))”, for which the melting temperature (Tm) came to 48.5 °C.

With “CGACGTGCAGCATGTGCTG+CAGCACATTACGCACGTCG ((((((((...((((((((+))))))))...))))))))”, the midpoint of thermal melting (Tm) was 45.1 °C.

As for “CGACGTGCAGGATGTGCTG+CAGCACATTCCGCACGTCG ((((((((.(.((((((((+)))))))).).))))))))”, the midpoint of thermal melting (Tm) is 54.6 °C.

With “CGACGTGCGCCATGTGCTG+CAGCACATTCGGCACGTCG ((((((((...((((((((+))))))))...))))))))”, the Tm stood at 47.5 °C.

Regarding “CGACGTGCCCGATGTGCTG+CAGCACATACAGCACGTCG ((((((((...((((((((+))))))))...))))))))”, the midpoint of thermal melting (Tm) was determined as 49.1 °C.

In the case of “CGACGTGCTGGATGTGCTG+CAGCACATCGCGCACGTCG ((((((((..(((((((((+)))))))))..))))))))”, the Tm came to 54.8 °C.

“CGACGTGCATAATGTGCTG+CAGCACATATGGCACGTCG ((((((((...((((((((+))))))))...))))))))”: the midpoint of thermal melting (Tm) turned out to be 50.4 °C.

As to “CGACGTGCCTGATGTGCTG+CAGCACATACTGCACGTCG ((((((((...((((((((+))))))))...))))))))”, the Tm was 48.4 °C.

Turning to “CGACGTGCCAAATGTGCTG+CAGCACATTATGCACGTCG ((((((((..(((((((((+)))))))))..))))))))”, the Tm stood at 51.2 °C.

In the case of “CGACGTGCGGAATGTGCTG+CAGCACATGTCGCACGTCG (((((((((..((((((((+))))))))..)))))))))”, the melting temperature (Tm) worked out at 57 °C.

As to “CGACGTGCGCTATGTGCTG+CAGCACATGCGGCACGTCG ((((((((...((((((((+))))))))...))))))))”, the midpoint of thermal melting (Tm) was determined as 54 °C.

For the substance “CGACGTGCTTCATGTGCTG+CAGCACATCGGGCACGTCG ((((((((...((((((((+))))))))...))))))))”, the Tm came out at 48.9 °C.

Turning to “CGACGTGCTCAATGTGCTG+CAGCACATTAAGCACGTCG (((((((((.(((((((((+))))))))).)))))))))”, the melting temperature (Tm) was 54.4 °C.

Take “CGACGTGCAGAATGTGCTG+CAGCACATCGTGCACGTCG (((((((((..((((((((+))))))))..)))))))))”: the Tm is 49 °C.

Regarding “CGACGTGCCTAATGTGCTG+CAGCACATAGTGCACGTCG ((((((((...((((((((+))))))))...))))))))”, the Tm stood at 47.2 °C.

With “CGACGTGCAATATGTGCTG+CAGCACATAGAGCACGTCG ((((((((..(((((((((+)))))))))..))))))))”, the melting temperature (Tm) is 52.7 °C.

For the substance “CGACGTGCGGTATGTGCTG+CAGCACATGTCGCACGTCG (((((((((..((((((((+))))))))..)))))))))”, the Tm was determined as 57.1 °C.

Turning to “CGACGTGCGGCATGTGCTG+CAGCACATAAGGCACGTCG ((((((((...((((((((+))))))))...))))))))”, the melting temperature (Tm) was 51.3 °C.

For the substance “CGACGTGCTCAATGTGCTG+CAGCACATTGGGCACGTCG ((((((((.((((((((((+)))))))))).))))))))”, the Tm worked out at 60.1 °C.

Turning to “CGACGTGCCCGATGTGCTG+CAGCACATCTTGCACGTCG ((((((((..(((((((((+)))))))))..))))))))”, the melting temperature (Tm) was 52.5 °C.

On to “CGACGTGCGACATGTGCTG+CAGCACATTAAGCACGTCG ((((((((...((((((((+))))))))...))))))))”, for which the Tm was determined as 53.3 °C.

“CGACGTGCGACATGTGCTG+CAGCACATTTTGCACGTCG ((((((((.(.((((((((+)))))))).).))))))))”: the Tm came out at 51.4 °C.

Regarding “CGACGTGCCCTATGTGCTG+CAGCACATTATGCACGTCG ((((((((...((((((((+))))))))...))))))))”, the Tm was 48 °C.

With “CGACGTGCTCCATGTGCTG+CAGCACATTCTGCACGTCG ((((((((...((((((((+))))))))...))))))))”, the Tm came to 47.2 °C.

For the substance “CGACGTGCTCGATGTGCTG+CAGCACATGATGCACGTCG ((((((((...((((((((+))))))))...))))))))”, the Tm amounted to 51.9 °C.

“CGACGTGCCTTATGTGCTG+CAGCACATGGGGCACGTCG (((((((((..((((((((+))))))))..)))))))))”: the melting temperature (Tm) stood at 56.1 °C.

Regarding “CGACGTGCGGCATGTGCTG+CAGCACATCGCGCACGTCG (((((((((..((((((((+))))))))..)))))))))”, the Tm was 55.2 °C.

“CGACGTGCGTCATGTGCTG+CAGCACATTTAGCACGTCG ((((((((...((((((((+))))))))...))))))))”: the midpoint of thermal melting (Tm) is 51.6 °C.

Consider “CGACGTGCTGTATGTGCTG+CAGCACATAAAGCACGTCG (((((((((.(((((((((+))))))))).)))))))))”, for which the midpoint of thermal melting (Tm) worked out at 55.5 °C.

On to “CGACGTGCAACATGTGCTG+CAGCACATGCTGCACGTCG (((((((((.(((((((((+))))))))).)))))))))”, for which the Tm is 56.9 °C.

As for “CGACGTGCTATATGTGCTG+CAGCACATGGGGCACGTCG ((((((((...((((((((+))))))))...))))))))”, the Tm is 51 °C.

“CGACGTGCGATATGTGCTG+CAGCACATTCGGCACGTCG ((((((((...((((((((+))))))))...))))))))”: the midpoint of thermal melting (Tm) worked out at 52.7 °C.

For “CGACGTGCCTAATGTGCTG+CAGCACATCCGGCACGTCG (((((((((..((((((((+))))))))..)))))))))”, the Tm amounted to 52 °C.

For “CGACGTGCCAAATGTGCTG+CAGCACATTTTGCACGTCG ((((((((.((((((((((+)))))))))).))))))))”, the midpoint of thermal melting (Tm) came out at 55.1 °C.

In the case of “CGACGTGCAGTATGTGCTG+CAGCACATGCCGCACGTCG ((((((((.(.((((((((+)))))))).).))))))))”, the midpoint of thermal melting (Tm) was found to be 52.8 °C.

For “CGACGTGCACGATGTGCTG+CAGCACATGTAGCACGTCG ((((((((...((((((((+))))))))...))))))))”, the midpoint of thermal melting (Tm) turned out to be 48.7 °C.

For the substance “CGACGTGCCGGATGTGCTG+CAGCACATTAAGCACGTCG ((((((((...((((((((+))))))))...))))))))”, the Tm turned out to be 50.4 °C.

For the substance “CGACGTGCGATATGTGCTG+CAGCACATTGGGCACGTCG ((((((((...((((((((+))))))))...))))))))”, the midpoint of thermal melting (Tm) was found to be 50.3 °C.

As for “CGACGTGCTTCATGTGCTG+CAGCACATAAGGCACGTCG ((((((((.(.((((((((+)))))))).).))))))))”, the melting temperature (Tm) turned out to be 50.6 °C.

Turning to “CGACGTGCGTAATGTGCTG+CAGCACATATTGCACGTCG ((((((((...((((((((+))))))))...))))))))”, the Tm was found to be 50.5 °C.

Regarding “CGACGTGCAGAATGTGCTG+CAGCACATCTTGCACGTCG (((((((((..((((((((+))))))))..)))))))))”, the Tm came to 52.3 °C.

On to “CGACGTGCCACATGTGCTG+CAGCACATTAAGCACGTCG ((((((((...((((((((+))))))))...))))))))”, for which the melting temperature (Tm) was 48.6 °C.

“CGACGTGCTGAATGTGCTG+CAGCACATAGCGCACGTCG ((((((((...((((((((+))))))))...))))))))”: the melting temperature (Tm) is 48.3 °C.

Regarding “CGACGTGCGCTATGTGCTG+CAGCACATCGAGCACGTCG ((((((((.(.((((((((+)))))))).).))))))))”, the melting temperature (Tm) worked out at 53.1 °C.

In the case of “CGACGTGCCTTATGTGCTG+CAGCACATGTAGCACGTCG ((((((((...((((((((+))))))))...))))))))”, the melting temperature (Tm) was 49.1 °C.

For “CGACGTGCACAATGTGCTG+CAGCACATAAAGCACGTCG ((((((((...((((((((+))))))))...))))))))”, the Tm was 47.4 °C.

“CGACGTGCCCAATGTGCTG+CAGCACATCGTGCACGTCG ((((((((.(.((((((((+)))))))).).))))))))”: the Tm came to 45.8 °C.

With “CGACGTGCCGCATGTGCTG+CAGCACATTAGGCACGTCG (((((((((..((((((((+))))))))..)))))))))”, the melting temperature (Tm) is 55.3 °C.

With “CGACGTGCCACATGTGCTG+CAGCACATGTGGCACGTCG (((((((((((((((((((+)))))))))))))))))))”, the Tm was 66.4 °C.

For “CGACGTGCCTTATGTGCTG+CAGCACATAGAGCACGTCG ((((((((..(((((((((+)))))))))..))))))))”, the Tm is 51.8 °C.

In the case of “CGACGTGCGCTATGTGCTG+CAGCACATATCGCACGTCG (((((((((.(((((((((+))))))))).)))))))))”, the melting temperature (Tm) stood at 56 °C.

“CGACGTGCACTATGTGCTG+CAGCACATACTGCACGTCG (((((((((.(((((((((+))))))))).)))))))))”: the midpoint of thermal melting (Tm) stood at 48.8 °C.

On to “CGACGTGCAGCATGTGCTG+CAGCACATACCGCACGTCG ((((((((.(.((((((((+)))))))).).))))))))”, for which the Tm amounted to 47.3 °C.

Turning to “CGACGTGCGGCATGTGCTG+CAGCACATTTTGCACGTCG ((((((((...((((((((+))))))))...))))))))”, the Tm came out at 48.7 °C.

For the substance “CGACGTGCACGATGTGCTG+CAGCACATTCAGCACGTCG ((((((((...((((((((+))))))))...))))))))”, the Tm was 45.5 °C.

In the case of “CGACGTGCAAGATGTGCTG+CAGCACATGATGCACGTCG (((((((((..((((((((+))))))))..)))))))))”, the midpoint of thermal melting (Tm) was found to be 52.3 °C.

In the case of “CGACGTGCTGGATGTGCTG+CAGCACATGATGCACGTCG ((((((((...((((((((+))))))))...))))))))”, the Tm amounted to 51.7 °C.

With “CGACGTGCGCTATGTGCTG+CAGCACATGTGGCACGTCG ((((((((...((((((((+))))))))...))))))))”, the Tm is 50.8 °C.

For the substance “CGACGTGCCTCATGTGCTG+CAGCACATGAGGCACGTCG (((((((((((((((((((+)))))))))))))))))))”, the Tm was determined as 65.8 °C.

As to “CGACGTGCCGGATGTGCTG+CAGCACATAACGCACGTCG ((((((((...((((((((+))))))))...))))))))”, the Tm stood at 50 °C.

“CGACGTGCTCCATGTGCTG+CAGCACATGAAGCACGTCG (((((((((.(((((((((+))))))))).)))))))))”: the Tm worked out at 57.4 °C.

On to “CGACGTGCCTAATGTGCTG+CAGCACATTGCGCACGTCG ((((((((..(((((((((+)))))))))..))))))))”, for which the Tm turned out to be 51 °C.

Consider “CGACGTGCAGAATGTGCTG+CAGCACATTCTGCACGTCG (((((((((((((((((((+)))))))))))))))))))”, for which the Tm is 64.2 °C.
